Assay: soluble on expression in E. coli; label from the status in PepcDB or PDB records

Sequence | soluble on expression in E. coli
MGSSHHHHHHSSGLVPRGSHMNNIDFDSIAKMLLIKYKDFILSKFKKAAPVENIRFQNLVHTNQFAQGVLGQSQHLCTVYDNPSWHSIVLETLDLDLIYKNVDKEFAKDGHAEGENIYTDYLVKELLRYFKQDFFKWCNKPDCNHCGQNTSENMTPLGSQGPNGEESKFNCGTVEIYKCNRCGNITRFPRYNDPIKLLETRKGRCGEWCNLFTLILKSFGLDVRYVWNREDHVWCEYFSNFLNRWVHVDSCEQSFDQPYIYSINWNKKMSYCIAFGKDGVVDVSKRYILQNELPRDQIKEEDLKFLCQFITKRLRYSLNDDEIYQLACRDEQEQIELIRGKTQETKSESVSAASK | soluble
MMKRARIIYNPTSGRELFKRHLPDVLVRLEKAGYETSCHATEGPGDATKAARQAVLREFDLVVAAGGDGTINEVVNGIADQPYRPKLGVIPVGTTNDFARAIGVPRSIEGACEVIATGEPVPIDIGCVTNEDKTRYFINIAGGGRLTELTYEVPSKLKTMLGQLAYYLKGIEMLPSIKATEAQIEYDGKLFEGEIMMFLVSLTNSVGGFEKLAPDSSLNDGLFDFIIVKKTNLAEFIRLVTLAARGEHINDPHIIYTKANRVKVRSPMQLNLDGEFGGMLPGEFVNLYRHLEVIMPKDKAEQVRTGR | not soluble
MSLIYLHGFDSNSPGNHEKVLQLQFIDPDVRLVSYSTRHPKHDMQHLLKEVDKMLQLNVDERPLICGVGLGGYWAERIGFLCDIRQVVFNPNLFPYENMEGKIDRPEEYADIATKCVTNFREKNRDRCLVILSRHDEALDSQRSAQALHPFYEIVWDEEQTHKFKNISPYLQRIKAFKTLGEGHHHHHH | not soluble
MSLSQIISSNDVDFQAYMAEAEPQAKVLAAEAWRDDLVRTVEHGDQITGAKLPWSKTHDLLRFRPGEVTLWQGINGHGKSELLGQACIGFATQGERVCIASFEMKPQATLKRMLRQTAMNARPGVQAVDRLIDWSRDRLWLYDQQGTVTPAMLYAVIRYCADRLKVRHMVIDSLMKCVRGEDDYNGQKDFVDMLCTLARDLRMHIHLVHHAKKGENEDQVPGKFSAKGSGAIVDQVDQMLTVWRNKKKERIAEAELRKDGEVSADTHDSPDTLLICDKNRHGEWEGRIQLWRHADSLQFTGDKRRQPLDMIGALAEGHHHHHH | soluble
MGSDKIHHHHHHMAFTESDVYNNEAFFEQYMKRRYRENSPNEALEKPAFFQLISDVKGKRILDLGCGDAKFGEELLEKGCHSYTGIEGSELMYEKAKKQLENKNGAVHFLNLKDYTYPPSTFDLVTSRLALHYIEHLPIIFQNVYETLKTNGTFTFSVQHPIITSSFESLQTSGKRTSWLVDDYFKLGKRVEPWIDQEVIKYHRTTEEYFTLLQQAGFTITNLKEATPDQTYFQNAEEYERRLRIPLFLLFSCRK | not soluble
MAHHHHHHMPYNALVSSHLAELTLCKLAELMVPNDFNLFVLAIKDDLLSKALEDHSLFVFLSAAFVNAIIPKLKELKLEEDKDDSPHLCALRVRPHERPFKPRLLECLKDFKGKINAECRVLYKPEAKNFPLVDGFFFVESKPKIMVGLQMTTASEHHTIPSTVNLFKENMAKYFNGWEKFSRDMLWEIIYIQHADSTPLDGWQRCDYVNPRNKTDAENEIVAFWNGKVHQYQFVLTTEFVSKIREMKM | not soluble
AIAPRNNKTSLIQKIASQAYATFTNCSSSAIEDNNKVFLEHQADLVALLSDIRAADLKIAPPTKVSTSSPSVPPVTYMHICETDVFSMGVFLLKSGASIPLHDHPGMHGMLKVLYGKVSIRCYDKLDKAESDTERHFDPPLLAFQGDDVRRAALRSSGQFSELSGPCVLSPFKDNLHEIDAVDGAAAFLDILAPPYDPDDGRDCHYYRVLQTAGKKSEQSGDDEAWLLEIPQPDDFWCGGEPYPGPEVTI | soluble
SKSINVDQISIRSLSEPANPFSFWQWIFIYLPGLKEDEKQEILTHEQTHVRQWHSIDVIISEIVNIICWMNPFAWLLKTEIRLNLEYLADHKVMESGTNKKAYQYHLLGLA | not soluble
IKGSTDMDHSGFIQKFIALYGGLNKHTLHHLSEIYSYDVQFIDAVHEINGIDELTDYFTHLYTNLIECKFTIHHVIEDINLTQGEATLFWTMNYKHPKIGKGKSISVEGVSHIKFNDKVFYHRDFLDMGQMVYEHLPLIGPMVKFIKKRVQA | soluble
MGSDKIHHHHHHLNIAVNTRLLLEDRLEGIGWFTYETLKRITEQNPQHTFHFFFDRPYNDKFVFGKNVVPHVLFPQARHPFLWYIFFEWSIPFMLRKVKADAFISTDGYMPKSSKVKVLNVIHDINFEHRPQDLPKRVANYYKKNMPLFAQKATRLATVSEFSKQDLVKTYNIPADKIDVVYNGCNAAFKPIPEAEQVKVRYKHSAGRPFFLYIGSMHPRKNILNLMKAFEVFKKMTNCDMKLLLVGKAMWSNKDIQSLYHTLIYRHDIHFLGHIKTAELARIMASAHALTFVPYFEGFGIPILEALNCGVPVITSNTTSLPEVAGKAALLVNPESSEAIANAMIQIYKAPHIREKLLAQGVIQRQKFSWDKTAALLWASFEKMMR | not soluble
MGSSHHHHHHGGTGENLYFQGGSGSSCRGIVVAGVTNQARTQMAEAFLRAFTGGRVFVCSGGVHHLGTVHPLAVVTMAEMGIDVSRQSSSSLAGVRRQRETYDVYVSVDAPYTERTSDRYQRRYTDTQAAQQSSMGAAGLSAPCASSTSDFCDPLLASATPAHWTVSQDTTDGRQSWTLWSPRNPAIYHERSTRKLQDHLYEGEPLFMRVRPHGLRKACRVQRRWEVPELTQRFALETEAEQKARFVQARDLLGSLALVLVRDLEREYGETMLDEAAVAAYEKVAATEC | not soluble
MGSDKIHHHHHHMKIGVNSYIVREMTGRGFSLDELNVDFVELGFDDAEIIKNDGEINMKILKDLSGLGIEFTIHAPTSDGKNFPIDFGEYFPIDLGTYRKTPIIKRMKKIIKVAEYLDASVIVVHGGDIKESYTKAYVNTLRNLRELKPITEDSGVKIVVENLFEGRIGALPHEVLSFAKEGFEVCFDIGHAFLTAIRTGLRVDEFEMLFPYTTHLHLHDNNGFRDEHKPIGEGIIGFSYVERVLELTNPERAVLEIRRYNKENSVLLNVEVLQEISRDFSQMKRLTEVVEP | not soluble
MMTMMATFLDVIDQKARSHYDEGKGLALRSLDPEADAAQLQQWFSMDYARFWSMQDSSVHQVRDFYTALCSSGHAGAWLGLHHGRAAFLVECYDPARDQVGEHYCVRPGDLGMHLLIAPPTEHIPGFSRAVFALVMRFMFDRLHAARVVVEPDVNNTKIHALNLSMGFVYAGLARFREKTASLAFCTRAQFEQAQRQELTQ | not soluble
MSAKLISVTKPVVEGVNTAEELIAYAARVSNPENQINNKTASGLLKYCIRHKHWSIFETAFMTLELKTSRGIAAQVIRHRSFHFQEFSQRYASVMETPPPHQARFQDHKNRQNSLDTVPEDDQTWWATEQEKLYAQSMELYNKALEKGIAKECARFILPLSTPTTIYMSGTIRDWIHYIELRTSNGTQREHIDLANACKEIFIKEFPSIAKALDWVH | soluble
MGSDKIHHHHHHMHLFKRAEMLNVIDTLATNYLKGKVRAVRLSVIALLSGGHILLEDIPGLGKTTLALALARALGLSFGRVQCTSDLLPSDITGLSILNRDENRFTFMPGPIFNNVVLMDEINRAMPKTQSALLEAMEERRVTVEGTTHPLPEPFLVIATQNPVEQVGTYPLPESQLDRFMVRSGIGYPPEAIEKAIIKGGSIRDGIRHLEPLVTVNDIIEAQRTVRESIYLSDKVVDYIHAIVAATRSHRAVTSGVSTRGAISMAETAKAHAYLEGRDYVIPEDVKAIAAPVGAHRLILGFDNENLDKGELLHAILATIPVPLA | not soluble
MPYDFYTDGSALGNGQQGSRGGYGVHVPSDTSKNVSGSYPHGPQTNNRYELEAIKHATQMARDVPDSHVRIHTDSKNAKDSVTKWNDNWKSNGYKTSSGQDVKNQDLIRDIDRNVQALKHSGKTVEFEHVRGHSNRMYI | not soluble
MGSDKIHHHHHHMIDLQEILANMNPNQKINYDRVMQQMAKVWEKESVRPSILMHVCCAPCSTYTLEYLTQFADITVYFANSNIHPKDEYHRRAYVTQQFVSEFNAKTGNTVQFLEADYVPNEYVRQVRGLEEEPEGGDRCRVCFDYRLDKTAQKAVELGFDYFASALTISPHKNSQTINDVGIDVQKVYTTKYLPSDFKKNNGYRRSVEMCEEYDIYRQCYCGCVYAAKMQGIDLVQVKKDAKAFMADKDLDNDFTHIRFSYRGDEM | not soluble
MCASFSPTLDSRSRQLLRTLISCYIQNGEPIGSKTLAQQAGLDISPATIRNILADLEELGLLNSPHTSAGRVPTAHGYRMFVDSLVQMQPPSEDDIRRLRVEMTGGGTQTLLGSASEILSAMTHFVGVVSAPRREQFVFRHIDFVPLDARQIMAILIFADNEVQNRVIEPRRVYEPGELERVSNYLNAHFIGRTLADIRTTVLCELRKAKDEMEQLLAHSLDLASQMLVPNDSEDIVVTGQTRLMALQDLSDMDRLRELFEIFASKREILQLLERTIDAPGVRIFIGEETGMVSMEDISLVTAPYAAHGQVLGVLGVIGPKRMAYDRVIPLVQVVAQVLGTALEPPTMP | not soluble
MGSSHHHHHHSSGLVPRGSHMFTTKLAEKVVSAWKAKISQPALKAAQDGVIDTVAAALGGVTEHSVQVALKYVAATGGSGDSKLWGVNQRSNMFDAAFVNGMAAHAIDFDDSFPVMRGHPSSSLVPAIFAVGEHVGANGHNCLKSYVLGIEVVATLGRAVGKGHYLAGWHPTSTLGVFGATTAAALLLGADEEQLRNAWGIAASNSCGIIKNFGTMTKPMHTGSAARNGVLSAWLSMQSFTGCQTVFDDAEGILAMYGAQPGPELFNAMQKFGTPWAIIAPGLYKKSWPSCYANHKPLAGLFAIMKEHGLTGQDISHVDVGFLPGVEKPLLYMDPRTTEEAKFSIEANIGAALLDGEVSLASFEIEHLDRPAMRAAMKKVTRFDMPSETTFSGTTGYTDIVVHTADGKIERRIEATPGSLEDPMDDAHLERKFKDCTAWMPFGESGLLFDRLRSLTADQGIKTVQP | soluble
MASKIEQPRWASKDSAAGAASTPDEKIVLEFMDALTSNDAAKLIEYFAEDTMYQNMPLPPAYGRDAVEQTLAGLFTVMSIDAVETFHIGSSNGLVYTERVDVLRALPTGKSYNLSILGVFQLTEGKITGWRDYFDLREFEEAVDLPLRG | soluble
MNEIIMLLRTIPTSKLIQPIMQLFIDNAILNIVQNDALLIEKATHARNHLRLWSLQGHRDIPNLEHHHHHH | not soluble
MEPQLRCIGCGAAIQFENPKNAGYAPKSVLEKDAEEVICQRCFRLKHYNEVQDVPLDDDDFLSMLHRIGESKALVVNIVDIFDFNGSFIPGLPRFAADNPILLVGNKADLLPRSVKYPKLLRWMRRMAEELGLCPVDVCLVSAAKGIGMAKVMEAINRYREGGDVYVVGCTNVGKSTFINRIIEEATGKGNVITTSYFPGTTLDMIEIPLESGATLYDTPGIINHHQMAHFVDARDLKIITPKREIHPRVYQLNEGQTLFFGGLARLDYIKGGRRSFVCYMANELTVHRTKLEKADSLYANQLGELLSPPSKRYAAEFPPLVPRSLSVKERKTDIVFSGLGWVTCNDPGAQLVVHAPKGVDVFIRQSLI | soluble
GPGSMPPKSAVKKVDSAAATGKRKKLSFAESTVKAAAAAIQTTHVNVPVRAAAKHAPLAAAPRKKGQNAKKTTATTSSAARQRAATDLKRSGIVKAKRAEEEVAAPPVPSDEENSRDDEDDMLNGGAAVDSDTDDLSDMADRTPSDDELGAGKQASSSASRQRDSNGTVEPYRAVRLSFLPPEFQEPQLYKFLNQFGATVLNCFCVRSKRTHRSRGIAYVEFDKESAIPLVVEECNGMVLGGKAVRARAVTMRRRMPSRQMVDRRRALAYAYKTRGAPLKQHDVRRKGPVGLLIKAVRTEKNNNNYLKSLGIDFQTDFFQSQLATLPPVLLKKKRSRSKKSEKGTVATAGMAKAVVKTTDIATVASKSSPKRATRKAPATKTK | soluble

— the DeepSol protein solubility set
